Where a chain is given by its changes, count along the chain named. Names may count otherwise.
T1: human TIGIT (human)
T1 chain: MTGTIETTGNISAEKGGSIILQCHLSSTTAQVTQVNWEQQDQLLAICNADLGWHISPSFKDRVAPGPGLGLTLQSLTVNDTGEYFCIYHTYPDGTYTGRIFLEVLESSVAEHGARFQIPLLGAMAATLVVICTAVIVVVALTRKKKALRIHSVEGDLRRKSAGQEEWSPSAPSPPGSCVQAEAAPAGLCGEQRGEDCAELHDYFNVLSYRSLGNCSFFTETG

T2: TIGIT (human)
T2 chain: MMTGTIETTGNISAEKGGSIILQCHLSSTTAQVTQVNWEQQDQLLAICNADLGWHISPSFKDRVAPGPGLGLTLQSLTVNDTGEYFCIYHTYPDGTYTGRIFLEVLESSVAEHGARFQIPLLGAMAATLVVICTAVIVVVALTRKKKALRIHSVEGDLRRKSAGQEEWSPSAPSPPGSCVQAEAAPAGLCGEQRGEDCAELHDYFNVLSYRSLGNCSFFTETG

B1: Full length ECD of PD-L2 (ligand)
chain: LFTVTVPKELYIIEHGSNVTLECNFDTGSHVNLGAITASLQKVENDTSPHRERATLLEEQLPLGKASFHIPQVQVRDEGQYQCIIIYGVAWDYKYLTLKVKASYRKINTHILKVPETDEVELTCQATGYPLAEVSWPNVSVPANTSHSRTPEGLYQVTSVLRLKPPPGRNFSCVFWNTHVRELTLASIDLQSQMEPRTHPT
B2: variant CD155 IgV-Fc V9L, V11M, P18S, N35S, S54G, Q62K, L79P, L104M, T107M, V115M (Fc fusion)
chain: WPPPGTGDLVMQAPTQVSGFLGDSVTLPCYLQVPSMEVTHVSQLTWARHGESGGMAVFHQTKGPSYSESKRLEFVAARPGAELRNASLRMFGLRVEDEGNYTCMFVMFPQGSRSMDIWLRVLGSGGGGSEPKSSDKTHTCPPCPAPEAEGAPSVFLFPPKPKDTLMISRTPEVTCVVVDVSHEDPEVKFNWYVDGVEVHNAKTKPREEQYNSTYRVVSVLTVLHQDWLNGKEYKCKVSNKALPAPIEKTISKAKGQPREPQVYTLPPSRDELTKNQVSLTCLVKGFYPSDIAVEWESNGQPENNYKTTPPVLDSDGSFFLYSKLTVDKSRWQQGNVFSCSVMHEALHNHYTQKSLSLSPGK
B3: variant CD155 IgV-Fc D8G, P18S, M36I, V38A, H49Q, A76E, F91S, L104M, T107A, R113W (Fc fusion)
chain: WPPPGTGGVVVQAPTQVSGFLGDSVTLPCYLQVPNIEATHVSQLTWARQGESGSMAVFHQTQGPSYSESKRLEFVEARLGAELRNASLRMSGLRVEDEGNYTCMFVAFPQGSWSVDIWLRVLGSGGGGSEPKSSDKTHTCPPCPAPEAEGAPSVFLFPPKPKDTLMISRTPEVTCVVVDVSHEDPEVKFNWYVDGVEVHNAKTKPREEQYNSTYRVVSVLTVLHQDWLNGKEYKCKVSNKALPAPIEKTISKAKGQPREPQVYTLPPSRDELTKNQVSLTCLVKGFYPSDIAVEWESNGQPENNYKTTPPVLDSDGSFFLYSKLTVDKSRWQQGNVFSCSVMHEALHNHYTQKSLSLSPGK
B4: variant CD155 IgV-Fc P18S, S52P, S65A, S67V, L79P, F91S, L104M, T107S, R113W (Fc fusion)
chain: B3 chain with G8D, I36M, A38V, Q49H, S52P, S65A, S67V, E76A, L79P, A107S
B5: variant CD155 IgV-Fc T15I, P18T, L79P, F91S, L104M, G111R (Fc fusion)
chain: WPPPGTGDVVVQAPIQVTGFLGDSVTLPCYLQVPNMEVTHVSQLTWARHGESGSMAVFHQTQGPSYSESKRLEFVAARPGAELRNASLRMSGLRVEDEGNYTCMFVTFPQRSRSVDIWLRVLGSGGGGSEPKSSDKTHTCPPCPAPEAEGAPSVFLFPPKPKDTLMISRTPEVTCVVVDVSHEDPEVKFNWYVDGVEVHNAKTKPREEQYNSTYRVVSVLTVLHQDWLNGKEYKCKVSNKALPAPIEKTISKAKGQPREPQVYTLPPSRDELTKNQVSLTCLVKGFYPSDIAVEWESNGQPENNYKTTPPVLDSDGSFFLYSKLTVDKSRWQQGNVFSCSVMHEALHNHYTQKSLSLSPGK
B6: variant CD155 IgV-Fc V9I, Q12K, P18F, S65A, S67V, L79P, L104T, G111R, S112I (Fc fusion)
chain: B5 chain with V9I, Q12K, I15T, T18F, S65A, S67V, S91F, M104T, S112I
B7: variant CD155 IgV-Fc V9I, P18T, D23G, L79P, F91S, G111R (Fc fusion)
chain: B5 chain with V9I, I15T, D23G, M104L
B8: variant CD155 IgV-Fc P18F, T26M, L44V, Q62K, L79P, E82D, F91S, L104M, G111D (Fc fusion)
chain: B5 chain with I15T, T18F, T26M, L44V, Q62K, E82D, R111D
B9: variant CD155 IgV-Fc P18F, S65A, S67V, F91S, L104M, G111R (Fc fusion)
chain: B5 chain with I15T, T18F, S65A, S67V, P79L
B10: variant CD155 IgV-Fc P18L, K70E, L79P, F91S, V95A, G111R (Fc fusion)
chain: B5 chain with I15T, T18L, K70E, V95A, M104L
B11: variant CD155 IgV-Fc V9L, P18L, L79P, M90I, F91S, T102S, L104M, G111R (Fc fusion)
chain: B5 chain with V9L, I15T, T18L, M90I, T102S
B12: variant CD155 IgV-Fc P18T, M36T, S65A, S67E, L79Q, A81T, F91S, G111R (Fc fusion)
chain: B5 chain with I15T, M36T, S65A, S67E, P79Q, A81T, M104L
B13: variant CD155 IgV-Fc V9I, V10I, P18S, F20S, T45A, L79P, F91S, L104M, F108Y, G111R, S112V (Fc fusion)
chain: B5 chain with V9I, V10I, I15T, T18S, F20S, T45A, F108Y, S112V
B14: variant CD155 IgV-Fc V9L, P18T, Q62R, L79P, F91S, L104M, G111R (Fc fusion)
chain: B5 chain with V9L, I15T, Q62R
B15: variant CD155 IgV-Fc P18T, E37G, G53R, Q62K, L79P, F91S, E98D, L104M, T107M (Fc fusion)
chain: B5 chain with I15T, E37G, G53R, Q62K, E98D, T107M, R111G
B16: variant CD155 IgV-Fc P18C, T26M, L44V, M55I, Q62K, L79P, F91S, L104M, T107M (Fc fusion)
chain: B5 chain with I15T, T18C, T26M, L44V, M55I, Q62K, T107M, R111G

biological target: PD-1 (human); experiment: cell-based or functional assay
Sequence (chain, as listed by the source): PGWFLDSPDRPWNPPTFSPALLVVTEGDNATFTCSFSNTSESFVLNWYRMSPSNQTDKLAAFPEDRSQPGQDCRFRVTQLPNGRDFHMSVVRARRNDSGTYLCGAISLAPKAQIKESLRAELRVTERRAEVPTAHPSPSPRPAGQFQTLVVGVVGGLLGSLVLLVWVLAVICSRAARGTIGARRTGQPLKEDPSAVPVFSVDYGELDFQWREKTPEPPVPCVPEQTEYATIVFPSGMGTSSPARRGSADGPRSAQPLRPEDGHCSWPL

IFN gamma levels pg/ml (MLR) | Binder
1170 pg/mL | B1

Biological target: T1, human TIGIT
Experiment: flow cytometry, transfected HEK293 cells

MFI at 25 nM | Binder
3000 | B2

Biological target: T2, TIGIT
Experiment: cell-based or functional assay

IL-2 luciferase reporter, Normalized Fold Change from CD155-ECD, proteins at 50 nM | Binder
4 fold | B3
-0.1 fold | B4
0.4 fold | B5
2.3 fold | B6
2 fold | B7
4 fold | B8
0.6 fold | B9
2.4 fold | B10
2.4 fold | B11
-0.9 fold | B12
-1.9 fold | B13
7.4 fold | B14
8.6 fold | B15
1.6 fold | B16

— patent US20230381229A1 (ALPINE IMMUNE SCIENCES, INC., published 2023)
